What all share (assay): cell_activity; 3T46 transposition in E. coli T5 vs 3T3/WT
Conditions in all cases: chain copies: 2

In one series the target is T1, Mos-1 transposase TY (Drosophila mauritiana, UniProt Q7JQ07 SEQ:1-345, T216A,Y237C).
T1 sequence: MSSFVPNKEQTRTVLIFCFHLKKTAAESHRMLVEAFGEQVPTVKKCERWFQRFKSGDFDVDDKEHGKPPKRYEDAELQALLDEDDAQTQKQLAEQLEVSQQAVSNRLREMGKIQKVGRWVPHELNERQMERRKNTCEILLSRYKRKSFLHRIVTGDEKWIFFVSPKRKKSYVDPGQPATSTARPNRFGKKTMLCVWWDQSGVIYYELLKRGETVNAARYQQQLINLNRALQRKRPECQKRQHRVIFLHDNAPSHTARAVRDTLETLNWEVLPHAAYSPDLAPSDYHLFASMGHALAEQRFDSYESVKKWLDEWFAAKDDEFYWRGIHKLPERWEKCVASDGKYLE
As for the experimental part: (§1) Escherichia coli JM109 bacteria were co-transformed with the pBC 3T3 plasmid (comprising a transposition reporter 2 ITR 3′ mariner-like element and the chloramphenicol resistance gene) and with the inducible vector encoding for the transposase (pKK-Tnp or pMal-Tnp) comprising the ampicillin resistance gene. The bacteria selection was performed on ampicillin (100 μg/ml) and chloramphenicol in order to verify the presence of the two plasmids.
(§2) The JM109 bacteria containing both the pBC 3T3 plasmid and the pKK-Tnp (or pMalC2X-Tnp) plasmid were placed in culture for 1 hr at 37° C. in 250 μl of LB. This inoculum was then poured into 5 ml of LB supplemented with 1 mM IPTG. The culture was titrated on LB plates (100 μl of a 1/1000 dilution) and on LB-Tet plates (12.5 μg/ml) (250 μl of the non-diluted culture). The culture induced by IPTG was then cultured for 5 hours at 32° C. (optimal temperature of transposase) under stirring (250 rpm). The bacterial suspension was then titrated on LB plates (100 μl of a 1/250,000 dilution) and on LB-tet plates (100 μl of the undiluted bacterial suspension). The plates were placed at 37° C. overnight. The following day, the colonies were counted on LB and LB-Tet plates, and the transposition frequency (equal to the number of tetracycline bacteria over the number of bacterial per 1 ml of undiluted bacterial suspension) was calculated.
(§3) In order to evaluate the transposition efficiency of systems associating a hyperactive transposase and a pseudo-transposon that is also hyperactive, various combinations were tested in the transposition test in bacteria described in part I, paragraph I-B above.

In a further series the target is T2, Mos-1 transposase FQET (Drosophila mauritiana, UniProt Q7JQ07 SEQ:1-345, F53Y,Q91R,E137K,T216A).
T2 sequence: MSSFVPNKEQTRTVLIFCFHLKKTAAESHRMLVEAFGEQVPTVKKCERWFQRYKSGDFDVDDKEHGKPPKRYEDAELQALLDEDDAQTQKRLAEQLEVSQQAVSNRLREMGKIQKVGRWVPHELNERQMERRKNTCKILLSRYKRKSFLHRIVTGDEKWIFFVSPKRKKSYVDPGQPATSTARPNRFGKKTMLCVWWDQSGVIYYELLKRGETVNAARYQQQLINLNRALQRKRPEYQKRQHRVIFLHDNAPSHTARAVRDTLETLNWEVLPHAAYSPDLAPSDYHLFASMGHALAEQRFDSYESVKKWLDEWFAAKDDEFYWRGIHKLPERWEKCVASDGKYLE
As for the experimental part: as §1, §2, §3

In the next series the target is T3, Mos-1 transposase FQETY (Drosophila mauritiana, UniProt Q7JQ07 SEQ:1-345, F53Y,Q91R,E137K,T216A,Y237C).
T3 sequence: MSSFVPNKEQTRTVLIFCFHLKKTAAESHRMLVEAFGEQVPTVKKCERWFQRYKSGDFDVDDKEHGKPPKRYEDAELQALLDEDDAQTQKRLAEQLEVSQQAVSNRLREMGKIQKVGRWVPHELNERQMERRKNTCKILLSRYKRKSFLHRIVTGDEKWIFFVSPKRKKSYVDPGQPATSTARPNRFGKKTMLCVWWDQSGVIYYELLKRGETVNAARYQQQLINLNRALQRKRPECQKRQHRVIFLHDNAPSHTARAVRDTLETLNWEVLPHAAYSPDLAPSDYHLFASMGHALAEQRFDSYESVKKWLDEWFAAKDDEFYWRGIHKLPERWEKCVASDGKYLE
As for the experimental part:
as §1, §2, §3

The next series concerns the target T4, Mos-1 transposase ET (Drosophila mauritiana, UniProt Q7JQ07 SEQ:1-345, E137K,T216A).
T4 sequence: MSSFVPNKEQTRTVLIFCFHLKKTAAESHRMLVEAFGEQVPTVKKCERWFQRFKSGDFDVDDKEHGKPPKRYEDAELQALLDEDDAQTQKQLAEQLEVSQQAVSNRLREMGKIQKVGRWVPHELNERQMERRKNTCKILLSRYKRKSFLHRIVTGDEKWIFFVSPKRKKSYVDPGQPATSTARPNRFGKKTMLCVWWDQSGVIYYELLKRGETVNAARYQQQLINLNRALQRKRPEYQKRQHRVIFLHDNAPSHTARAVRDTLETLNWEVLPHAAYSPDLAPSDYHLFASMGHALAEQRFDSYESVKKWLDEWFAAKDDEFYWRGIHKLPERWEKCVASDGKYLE
As for the experimental part: as §1, §2, §3

A further series addresses T5, Mos-1 transposase FT (Drosophila mauritiana, UniProt Q7JQ07 SEQ:1-345, F53Y,T216A).
T5 sequence: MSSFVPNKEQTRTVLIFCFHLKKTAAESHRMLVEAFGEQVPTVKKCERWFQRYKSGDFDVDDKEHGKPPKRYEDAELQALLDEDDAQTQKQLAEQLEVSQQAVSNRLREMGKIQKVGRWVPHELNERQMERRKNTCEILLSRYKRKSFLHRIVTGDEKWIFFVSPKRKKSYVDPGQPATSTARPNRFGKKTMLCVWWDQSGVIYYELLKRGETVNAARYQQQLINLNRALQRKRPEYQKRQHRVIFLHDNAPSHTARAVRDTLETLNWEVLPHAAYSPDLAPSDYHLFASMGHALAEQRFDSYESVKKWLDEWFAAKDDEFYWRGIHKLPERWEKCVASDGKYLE
As for the experimental part: as §1, §2, §3

B1: ITR46 (dsDNA)
DNA 1: TCAGGTGTACAAGTATGAGATGTCGTTT
DNA 2: AAACGACATCTCATACTTGTACACCTGA
Consider B1, for which the activity stood at 61.8 fold with Mos-1 transposase TY; 12.3 fold in the series with Mos-1 transposase FQET; 2.3 fold with Mos-1 transposase FQETY; 6.7 fold with Mos-1 transposase ET; 3.7 fold with Mos-1 transposase FT.

These data come from US20100291682, “SYSTEM FOR TRANSPOSING HYPERACTIVE RECOMBINANT DERIVATIVES OF MOS-1 TRANSPOSON” (published 2010).
